# Assay results taken from publication PMC6137059.
# Biological target: TcpK (Clostridium perfringens (plasmid pCW3)) (UniProt Q1PLI2)
# Assay: SPR
# Settings: SPR: 10 mM HEPES pH 7.4, 200 mM NaCl, 3 mM EDTA, 0.05% Tween 20, 20 C
Sequence,binding signal [% Rmax],Kd [µM]
AAGGAACTTTACAAGGAACTTTA (double strand) [linker CAA],25,
AAGGAACTTTACAGGGAACTT (double strand) [R2L10],55,
AAGGAACTTTACAGGGAACTTTA (double strand) [R2L9],100,
AAGGAACTTTACAGGGAACTTTA (double strand) [oriTmin23 (SPR)],,0.36
AAGGAACTTTACAGGGAACTTTAAAAATTT (double strand) [oriT#1 (SPR)],,0.521
AAGGAACTTTACAGGGAACTTTAAAAATTTAAATTGATA (double strand) [R2L1],100,
ACAGGGAACTTTAAAAATTTAAATTGATAT (double strand) [oriT#2 (SPR)],,2.58
